Laboratory results from patent US20090092595A1, “Suppression of sPLA2-integrin binding for treating an inflammatory condition” (REGENTS OF THE UNIVERSITY OF CALIFORNIA, priority 2007, published 2009).
Substitutions are numbered along the chain they refer to. Numbers in names are those of the source.

Tests used:
[1] = Bowton et al. 2005; cited from earlier work
[2] = Bradley et al. 2005; cited from earlier work
soluble integrin αvβ3 = molecular target: T1, soluble integrin αvβ3 (Homo sapiens, UniProt P05106+P06756); assay: Binding of soluble αvβ3 to immobilized sPLA2-IIA (ELISA-type assay); details: immobilized protein, 20 μg/ml coating
T1 construct: Recombinant soluble αvβ3 was synthesized as previously described; made in house
T1 sequence (P06756 31-992 limits assumed): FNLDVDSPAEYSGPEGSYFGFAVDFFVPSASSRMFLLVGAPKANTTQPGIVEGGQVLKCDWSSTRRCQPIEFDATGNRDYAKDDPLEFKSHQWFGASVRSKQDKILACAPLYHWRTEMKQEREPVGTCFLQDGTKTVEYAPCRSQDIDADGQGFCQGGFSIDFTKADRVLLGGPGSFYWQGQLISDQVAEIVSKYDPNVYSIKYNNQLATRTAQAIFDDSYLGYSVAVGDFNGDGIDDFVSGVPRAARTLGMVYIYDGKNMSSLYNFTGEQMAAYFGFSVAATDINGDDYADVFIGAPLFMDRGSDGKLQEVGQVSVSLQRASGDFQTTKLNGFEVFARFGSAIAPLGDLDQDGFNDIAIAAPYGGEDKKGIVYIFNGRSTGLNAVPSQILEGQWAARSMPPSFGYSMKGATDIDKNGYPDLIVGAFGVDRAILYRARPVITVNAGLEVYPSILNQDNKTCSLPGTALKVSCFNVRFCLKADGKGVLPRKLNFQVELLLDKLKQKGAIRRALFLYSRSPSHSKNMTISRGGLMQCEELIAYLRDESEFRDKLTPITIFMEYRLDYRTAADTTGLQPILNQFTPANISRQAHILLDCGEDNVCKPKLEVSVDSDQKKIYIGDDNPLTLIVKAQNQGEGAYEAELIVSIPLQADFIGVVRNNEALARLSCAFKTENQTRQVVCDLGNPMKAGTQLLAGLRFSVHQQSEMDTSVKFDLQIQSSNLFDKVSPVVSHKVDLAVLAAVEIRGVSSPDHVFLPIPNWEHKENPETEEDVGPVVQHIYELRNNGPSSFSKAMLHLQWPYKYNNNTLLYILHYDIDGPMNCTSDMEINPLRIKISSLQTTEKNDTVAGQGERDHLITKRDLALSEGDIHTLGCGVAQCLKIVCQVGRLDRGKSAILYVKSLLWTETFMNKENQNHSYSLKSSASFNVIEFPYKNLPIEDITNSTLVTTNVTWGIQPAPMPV
T1 sequence (P05106 27-718 limits assumed): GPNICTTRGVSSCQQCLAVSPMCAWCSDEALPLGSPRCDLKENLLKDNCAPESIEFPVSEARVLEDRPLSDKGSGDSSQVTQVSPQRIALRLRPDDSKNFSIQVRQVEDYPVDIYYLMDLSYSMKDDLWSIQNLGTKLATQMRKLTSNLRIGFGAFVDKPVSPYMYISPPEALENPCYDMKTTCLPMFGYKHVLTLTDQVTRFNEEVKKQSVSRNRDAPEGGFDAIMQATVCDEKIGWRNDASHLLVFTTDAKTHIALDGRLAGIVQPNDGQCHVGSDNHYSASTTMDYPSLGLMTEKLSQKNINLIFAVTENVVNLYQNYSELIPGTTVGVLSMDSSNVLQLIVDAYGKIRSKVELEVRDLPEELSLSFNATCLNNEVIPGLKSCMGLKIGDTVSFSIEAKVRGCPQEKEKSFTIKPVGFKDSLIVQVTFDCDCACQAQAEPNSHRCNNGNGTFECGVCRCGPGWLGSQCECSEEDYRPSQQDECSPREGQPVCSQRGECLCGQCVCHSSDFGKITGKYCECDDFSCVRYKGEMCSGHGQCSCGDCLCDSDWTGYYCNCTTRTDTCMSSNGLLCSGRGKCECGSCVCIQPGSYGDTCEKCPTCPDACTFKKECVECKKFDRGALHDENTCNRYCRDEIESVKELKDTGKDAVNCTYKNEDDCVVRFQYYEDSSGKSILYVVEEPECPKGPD
Experimental: Binding of soluble αvβ3 to immobilized sPLA2-IIA sPLA2-IIA was immobilized to wells of 96 well microtiter plates and the remaining protein-binding sites were blocked by BSA as described (Mori, S. et al., J Biol Chem, 283:18066-18075 (2008)). Soluble recombinant αvβ3 at 5 μg/ml in Hepes-Tyrodes buffer supplemented with 1 mM MnCl2 was added to the well and incubated for 2 h. Bound αvβ3 was measured using anti-integrin β3 (mAb AV-10) followed by HRP-conjugated goat anti-mouse IgG and peroxidase substrates.

integrin α4β1 = molecular target: T2, integrin α4β1 (Homo sapiens, UniProt P05556+P13612); assay: Adhesion of α4-K562 cells (recombinant α4β1) to immobilized sPLA2-IIA; format: cell-based; details: data not shown
T2 construct: K562 cells have endogenous α5β1; expressed in transfected cells; host or cells: K562
T2 sequence (P13612 34-1032): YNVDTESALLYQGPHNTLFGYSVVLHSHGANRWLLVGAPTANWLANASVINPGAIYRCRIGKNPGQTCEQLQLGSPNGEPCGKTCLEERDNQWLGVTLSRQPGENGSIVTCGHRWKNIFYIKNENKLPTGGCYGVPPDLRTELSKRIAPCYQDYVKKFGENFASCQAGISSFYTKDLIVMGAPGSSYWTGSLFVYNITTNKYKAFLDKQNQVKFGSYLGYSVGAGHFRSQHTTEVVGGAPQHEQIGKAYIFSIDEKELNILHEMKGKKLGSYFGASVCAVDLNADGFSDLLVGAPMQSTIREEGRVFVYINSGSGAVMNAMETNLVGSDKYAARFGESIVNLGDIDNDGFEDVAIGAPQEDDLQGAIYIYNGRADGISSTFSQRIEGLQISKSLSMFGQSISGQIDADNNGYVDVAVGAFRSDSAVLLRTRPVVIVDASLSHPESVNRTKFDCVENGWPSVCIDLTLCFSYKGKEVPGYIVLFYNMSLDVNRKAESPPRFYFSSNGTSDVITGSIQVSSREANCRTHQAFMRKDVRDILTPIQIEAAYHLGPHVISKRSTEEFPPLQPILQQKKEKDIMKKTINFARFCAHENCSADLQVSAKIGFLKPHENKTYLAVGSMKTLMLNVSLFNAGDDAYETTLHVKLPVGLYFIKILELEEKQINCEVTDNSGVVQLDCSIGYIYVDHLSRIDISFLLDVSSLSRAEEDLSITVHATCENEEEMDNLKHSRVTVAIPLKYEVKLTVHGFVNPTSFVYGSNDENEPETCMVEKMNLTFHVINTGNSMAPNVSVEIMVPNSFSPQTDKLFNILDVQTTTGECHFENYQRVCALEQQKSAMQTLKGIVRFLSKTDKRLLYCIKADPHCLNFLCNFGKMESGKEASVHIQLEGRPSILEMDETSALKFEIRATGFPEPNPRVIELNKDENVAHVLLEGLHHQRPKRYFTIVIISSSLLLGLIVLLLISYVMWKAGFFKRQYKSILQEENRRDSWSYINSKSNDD
T2 sequence (P05556 21-798): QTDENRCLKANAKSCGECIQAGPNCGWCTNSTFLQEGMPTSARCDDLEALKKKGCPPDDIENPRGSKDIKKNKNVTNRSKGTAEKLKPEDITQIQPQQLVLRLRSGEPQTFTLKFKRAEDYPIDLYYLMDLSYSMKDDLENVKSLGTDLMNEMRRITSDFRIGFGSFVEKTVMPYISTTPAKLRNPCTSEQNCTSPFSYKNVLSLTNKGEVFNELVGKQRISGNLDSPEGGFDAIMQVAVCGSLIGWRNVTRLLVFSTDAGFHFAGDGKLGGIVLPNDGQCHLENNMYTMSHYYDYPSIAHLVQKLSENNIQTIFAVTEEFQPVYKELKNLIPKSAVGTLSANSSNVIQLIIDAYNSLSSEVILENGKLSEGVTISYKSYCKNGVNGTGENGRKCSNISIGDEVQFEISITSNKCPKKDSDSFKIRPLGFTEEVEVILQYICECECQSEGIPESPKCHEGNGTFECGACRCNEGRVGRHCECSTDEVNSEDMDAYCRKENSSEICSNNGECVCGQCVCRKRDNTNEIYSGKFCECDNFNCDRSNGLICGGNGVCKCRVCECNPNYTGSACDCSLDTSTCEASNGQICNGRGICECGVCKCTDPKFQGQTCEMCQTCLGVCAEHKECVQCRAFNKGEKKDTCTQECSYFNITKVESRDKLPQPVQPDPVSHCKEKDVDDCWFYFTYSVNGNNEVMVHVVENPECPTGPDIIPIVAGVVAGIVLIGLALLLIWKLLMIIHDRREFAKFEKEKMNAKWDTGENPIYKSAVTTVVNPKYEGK
Experimental: FIG. 5. sPLA2-IIA binding to integrin α4β1. a) Cells expressing recombinant α4β1 adhered to wt sPLA2-IIA better than cells expressing other recombinant integrins. We used transfected K562 cells clonally express different human integrins for adhesion assays. Low background adhesion to BSA was subtracted. […] Wells of 96-well microtiter plate were coated with VCAM-1 and FN-GST, and incubated with U937 cells (1×10^4 cells/plate) in the presence of the increasing concentrations of sPLA2-IIA for 1 h at 37° C. Adherent cells were quantified using endogenous phosphatase after gently rinsing the well to remove unbound cells. Data is shown as means+/−SEM of triplicate experiments. *P=0.0101 and **P<0.0001 by t-test. c) Amino acid sequence in the α4 subunit that is critical for VCAM-1 and CS-1 binding is also critical for sPLA2-IIA binding. CHO cells that clonally express wt or mutant α4 (Irie, A. et al., Embo J, 14(22): 5550-5556 (1995)) were used for adhesion assays. Data is shown as means+/−SEM of triplicate experiments. Similar results were obtained using K562 cells expressing α4 mutants (not shown).
Other methods We performed docking simulation of interaction between sPLA2-IIA and integrin αvβ3 using the AutoDock3 as previously described (Mori, S. et al., J Biol Chem, in press (2008)). […]

[3] = molecular target: integrin αvβ3 on CHO cells expressing recombinant αvβ3 (β3-CHO) and on proteoglycan-deficient pgs745 cells (β3-745) (human) (UniProt P05106); assay: cell adhesion to coated sPLA2-IIA, 7E3 at 10 µg/ml in the medium; about the background level
Chain of integrin αvβ3 on CHO cells expressing recombinant αvβ3 (β3-CHO) and on proteoglycan-deficient pgs745 cells (β3-745) (human) (P05106 27-788): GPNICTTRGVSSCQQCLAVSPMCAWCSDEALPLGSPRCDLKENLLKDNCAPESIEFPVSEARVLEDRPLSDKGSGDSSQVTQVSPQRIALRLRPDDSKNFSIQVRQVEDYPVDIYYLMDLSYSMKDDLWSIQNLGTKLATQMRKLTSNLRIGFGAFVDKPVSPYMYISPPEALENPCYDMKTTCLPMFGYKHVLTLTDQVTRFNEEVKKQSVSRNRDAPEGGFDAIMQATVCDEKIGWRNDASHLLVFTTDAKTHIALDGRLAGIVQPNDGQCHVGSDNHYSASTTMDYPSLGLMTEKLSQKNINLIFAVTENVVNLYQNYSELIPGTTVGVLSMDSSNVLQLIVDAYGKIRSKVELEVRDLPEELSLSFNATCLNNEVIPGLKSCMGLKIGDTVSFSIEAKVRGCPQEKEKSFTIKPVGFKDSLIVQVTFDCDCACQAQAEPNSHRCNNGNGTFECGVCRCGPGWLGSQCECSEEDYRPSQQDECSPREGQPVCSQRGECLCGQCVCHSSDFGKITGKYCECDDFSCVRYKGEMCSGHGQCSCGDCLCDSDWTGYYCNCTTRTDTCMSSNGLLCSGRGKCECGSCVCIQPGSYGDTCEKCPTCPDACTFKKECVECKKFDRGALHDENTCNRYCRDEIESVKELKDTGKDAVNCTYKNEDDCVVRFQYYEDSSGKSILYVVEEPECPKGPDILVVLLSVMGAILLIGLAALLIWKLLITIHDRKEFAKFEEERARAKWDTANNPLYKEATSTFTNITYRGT

[4] = molecular target: T3, recombinant soluble integrin αvβ3 (UniProt P06756 31-992; P05106 27-718); assay: SPR (Biacore), soluble αvβ3 amine-coupled to CM5 chip, sPLA2-IIA injected, 1 mM Mn2+, 1:1 binding with drifting baseline model
T3 construct: Soluble heterodimer; whole entries named only; also called soluble αvβ3; soluble recombinant αvβ3
T3 sequence (P06756 31-992, chain 1 of 2): as the sequence (P06756 31-992 limits assumed) above
T3 sequence (P05106 27-718, chain 2 of 2): as the sequence (P05106 27-718 limits assumed) above
Experimental: (§4) The mutant proteins were tested for binding to soluble integrin αvβ3.
(§5) Surface plasmon resonance study Recombinant soluble integrin αvβ3 was immobilized to Biacore Sensor chip CM5 (Biacore, Piscataway, N.J.) by the standard amine coupling method. […] Then the sensor chip was washed with the running buffer alone at the same flow rate for another 5 min (the dissociation phase). Two consecutive one-minute injections of 0.5 M, pH 8 EDTA solution at the same flow rate were used to regenerate the chip for another cycle of injection. The resonance unit elicited from the reference flow cell was subtracted from the resonance unit elicited from the integrin flow cell to eliminate the non-specific protein-flow cell interaction and the bulk refractive index effect. The recorded binding curves were fitted with the “1:1 binding with drifting baseline model” by using the Biaevaluation Version 4.1.

[5] = molecular target: T4, integrin α4β1 on K562 cells expressing recombinant α4β1 (α4-K562) and on U937 human monocytic lymphoma cells (human, UniProt P13612 34-1032; P05556 21-798); assay: cell adhesion of α4-K562 cells to coated sPLA2-IIA
T4 construct: whole, on cells; Recombinant α4 in K562 cells; endogenous α4β1 in U937 cells; Treated as one molecule (human α4β1 on cells); also called α4-K562 cells; U937 cells (α4β1+)
T4 sequence (P13612 34-1032, chain 1 of 2): as the sequence (P13612 34-1032) above
T4 sequence (P05556 21-798, chain 2 of 2): as the sequence (P05556 21-798) above

α4-K562 cells = assay: Proliferation of α4-K562 cells (MTS assay); format: cell-based, human; details: serum-starved 48 h, stimulated 48 h
Experimental: (§1) Cells were serum-starved for 48 h and stimulated with sPLA2-IIA for 48 h. Cell proliferation was determined by MTS assays. Data is shown as means+/−SEM of triplicate experiments. α4- and αvβ3-K562 cells proliferated faster than mock-K562 cells. […] Serum-starved cells were stimulated with wt or mutant sPLA2-IIA (0.5 μg/ml) for 48 h. Data is shown as means+/−SEM of triplicate experiments. α4-K562 and αvβ3-K562 cells grew faster than mock K562 cells with wt and H47Q sPLA2-IIA (*P<0.05 by t-test).
(§2) Cell proliferation and MAP kinase activation K562 cells and human monocytic lymphoma U937 cells were maintained in RPM11640 medium supplemented with 10% FCS. Cells were plated in 96-well plates (1×10^4 cells/well), and serum-starved for 48 h at 37° C. in 5% CO2 atmosphere. Cells were then treated with or without sPLA2-IIA in medium without serum for 48 h. Cell proliferation was determined by MTS assays using the Aqueous Cell Proliferation Assay Kit (Promega). For MAP kinase activation assays, cells were serum starved in RPMI1640 medium supplemented with 0.4% FCS for 24 h, and stimulated with Wt and mutant sPLA2-IIA (0.5 μg/ml) for 10 min at 37° C. ERK1/2 activation was measured as described (Mori, S. et al., J Biol Chem, in press (2008)).

ERK1/2 = assay: MAP kinase (ERK1/2) activation in U937 cells, western blotting; format: cell-based, human; details: 0.5 μg/ml, 10 min, 37° C.
Experimental: (§3) U937 cells (αvβ3+, α4β1+) were plated in wells of 96-well plates (10,000 cells/well), and serum-starved for 48 h. After treatment with wt or mutant sPLA2-IIA for 48 h, we measured cell proliferation by MTS assays. […] U937 cells were serum-starved for 24 h, and stimulated with wt and mutant sPLA2-IIA (0.5 μg/ml) for 10 min at 37° C. Cell lysates were analyzed by western blotting with anti-phospho ERK1/2 or anti-ERK1/2 antibodies. The blot is representative of three independent experiments.
as §2

[6] = test system: U937 human monocytic lymphoma cells; assay: Proliferation of U937 cells (MTS assay); format: cell-based; details: serum-starved 48 h, treated 48 h
Experimental: as §3, §2

[7] = PLA2 activity by arachidonoyl-Thio-PC hydrolysis; format: biochemical; details: effect of mutation on catalytic activity
Experimental: Other methods We performed docking simulation of interaction between sPLA2-IIA and integrin αvβ3 using the AutoDock3 as previously described (Mori, S. et al., J Biol Chem, in press (2008)). Adhesion assays were performed as described previously (Eto, K. et al., J. Biol. Chem., 277:17804-17810 (2002)). mAb 7E3 was used at 10 μg/ml. We assayed PLA2 activity by arachidonoyl-Thio-PC hydrolysis (Cayman Chemicals, Ann Arbor, Mich.) as described (Reynolds, L. J. et al., Anal. Biochem., 217:25-32 (1994)).

αvβ3-K562 cells = assay: Proliferation of αvβ3-K562 cells (MTS assay); format: cell-based, human; details: serum-starved 48 h, stimulated 48 h
Experimental: as §1, §2

[8] = molecular target: T3, recombinant soluble integrin αvβ3; assay: SPR (Biacore), soluble αvβ3 amine-coupled to CM5 chip, mutant injected, 1 mM Mn2+, 1:1 binding with drifting baseline model
Experimental: as §4, §5

CCc1c(C(=O)C(N)=O)c2c(OCC(=O)[O-])cccc2n1Cc1ccccc1.[Na+] [S-5920/LY315920Na]
therapeutic effect in asthma [1]: failed to demonstrate a significant therapeutic effect
therapeutic effect in rheumatoid arthritis [2]: failed to demonstrate a significant therapeutic effect

disintegrin domain of ADAM15: a known αvβ3 ligand, positive control [reference compound]
binding to soluble αvβ3 (soluble integrin αvβ3): bound

CCc1c(C(=O)C(N)=O)c2c(OCC(=O)OC)cccc2n1Cc1ccccc1 [S-3013/LY333013]
therapeutic effect in asthma [1]: failed to demonstrate a significant therapeutic effect
therapeutic effect in rheumatoid arthritis [2]: failed to demonstrate a significant therapeutic effect

Cc1ccccc1NC(=O)Nc1ccc(CC(=O)N[C@@H](CCCCNC(=O)/C=C/c2cccnc2)C(=O)N[C@@H](CCCC(=O)O)C(=O)NC2(C(N)=O)CCCCC2)cc1 [LLP2A, reference compound]
blocking of α4β1 binding to sPLA2-IIA in transfected K562 cells (integrin α4β1): did not block

mAb 7E3 (specific to human β3 subunit, function blocking) (antibody)
adhesion of β3-CHO cells to immobilized sPLA2-IIA in the presence of the antibody (%) [3]: 30%

B1: wt sPLA2-IIA (secretory phospholipase A2 group IIA) (enzyme)
chain: NLVNFHRMIKLTTGKEAALSYGFYGCHCGVGGRGSPKDATDRCCVTHDCCYKRLEKRGCGTKFLSYKFSNSGSRITCAKQDSCRSQLCECDKAAATCFARNKTTYNKKYQYYSNKHCRGSTPRC
modifications: FITC label in the flow cytometry assay only (sites not given) ; FITC label (sites not given) in the flow cytometry assay only; the other assays used unlabelled protein.
notes: the form is read from the printed primers; also called FITC-sPLA2-IIA; FITC-labeled sPLA2-IIA; not shown: N-terminal vector-encoded residues with the His tag from the PET28a/amp vector (insert in the Bam HI site)
Kd [4]: 211 nM
binding result [5]: binds

B2: R53E: sPLA2-IIA mutant, Arg-53 mutated to Glu (protein)
chain: B1 chain with R53E
modifications: left off: small tags and cut ends
notes: sPLA2-IIA mutant, Arg-53 mutated to Glu
binding to soluble αvβ3 (soluble integrin αvβ3): little or no effect

B3: R74E: sPLA2-IIA mutant, Arg-74 mutated to Glu (protein)
chain: B1 chain with R74E
modifications: left off: small tags and cut ends
notes: sPLA2-IIA mutant, Arg-74 mutated to Glu
binding to soluble αvβ3 (soluble integrin αvβ3): reduced the binding

B4: R42E: sPLA2-IIA mutant, Arg-42 mutated to Glu (protein)
chain: B1 chain with R42E
modifications: left off: small tags and cut ends
notes: sPLA2-IIA mutant, Arg-42 mutated to Glu
binding to soluble αvβ3 (soluble integrin αvβ3): little or no effect

B5: H47Q: catalytically inactive mutant of sPLA2-IIA, His-47 mutated to Gln (protein)
chain: B1 chain with H47Q
modifications: left off: small tags and cut ends
proliferation of α4-K562 cells (α4-K562 cells): induced proliferation
ERK1/2 activation in U937 cells (ERK1/2): induced
proliferation of monocytic U937 cells [6]: induced robust proliferation
PLA2 activity [7]: reduced PLA2 activity
proliferation of αvβ3-K562 cells (αvβ3-K562 cells): induced proliferation
binding to soluble αvβ3 (soluble integrin αvβ3): did not affect the binding

B6: R74E/R100E: integrin-binding-defective combined mutant of sPLA2-IIA, Arg-74 and Arg-100 mutated to Glu (protein)
chain: B1 chain with R74E, R100E
modifications: left off: small tags and cut ends
proliferation of α4-K562 cells (α4-K562 cells): did not induce proliferation
ERK1/2 activation in U937 cells (ERK1/2): did not induce
proliferation of monocytic U937 cells [6]: did not
PLA2 activity [7]: did not affect PLA2 activity
proliferation of αvβ3-K562 cells (αvβ3-K562 cells): did not induce proliferation
binding to soluble αvβ3 (soluble integrin αvβ3): effectively reduced the binding

B7: R100E: sPLA2-IIA mutant, Arg-100 mutated to Glu (protein)
chain: B1 chain with R100E
modifications: left off: small tags and cut ends
notes: sPLA2-IIA mutant, Arg-100 mutated to Glu
binding to soluble αvβ3 (soluble integrin αvβ3): reduced the binding

B8: sPLA2-IIA H47Q mutant (catalytically inactive) (enzyme, human, UniProt P14555 21-144, looked up)
chain: B1 chain with H47Q
notes: mature; the printed positions appear to count on the mature protein, not on the precursor entry P14555; also called H47Q sPLA2-IIA; not shown: N-terminal vector-encoded residues with His tag from the PET28a/amp vector
Kd [8]: 44.7 nM

B9: sPLA2-IIA R74E/R100E mutant (integrin-binding-defective) (enzyme, human, UniProt P14555 21-144, looked up)
chain: B1 chain with R74E, R100E
notes: mature; the printed positions appear to count on the mature protein; not shown: N-terminal vector-encoded residues with His tag from the PET28a/amp vector
Kd [8]: 1080 nM
